Measurements reported in the supplement of paper PMC9732359.
± gives the uncertainty stated by the source.

Test: protein stability index of a GFP-peptide fusion (yeast GPS) (PSI 1-4); higher = more stable; sorted into four equal gates, so the index is relative within each strain
Method in brief: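 Tiled 17-residue yeast protein peptides were fused downstream of GFP in a plasmid that also expresses Cherry, and the pooled library was carried in yeast. Mid-log cultures in leucine-free medium were sorted into four equal gates by GFP/Cherry fluorescence ratio, and plasmids from each gate were PCR-amplified and Illumina-sequenced, with reads assigned to strains by barcodes. The protein stability index for each peptide was each gate's read frequency times its gate number, summed.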

Sequence | protein stability index (doa10∆) | protein stability index (pdr5∆) | protein stability index (san1∆) | protein stability index (ubr1∆)
DLSANQRETMKERKLRE [SMC1] | 3.3 ± 0.13 | 3.06 ± 0.096 | 2.96 ± 0.091 | 3.42 ± 0.063
SIATKRFDAQTGSDREV [RPT3] | 3.28 ± 0.13 | 3.17 ± 0.1 | 3.17 ± 0.077 | 3.48 ± 0.11
IDAMKAVAEAYNNRSLL [RPN6] | 1.7 ± 0.061 | 2.07 ± 0.068 | 2.28 ± 0.095 | 1.79 ± 0.067
MAKDIEISASESKFILE [RRP45] | 3.17 ± 0.092 | 3.06 ± 0.14 | 2.99 ± 0.064 | 3.02 ± 0.093
IRTRRAAELLDKRIVIS [DIS3] | 1.5 ± 0.11 | 1.81 ± 0.1 | 1.51 ± 0.17 | 1.84 ± 0.1
HYVVLDTNVVLQAIDLL [DIS3] | 2.53 ± 0.093 | 2.49 ± 0.073 | 2.23 ± 0.1 | 2.39 ± 0.064
PQSAPNQMGMGTNNGMS [YOR098C/NUP1] | 3.4 ± 0.12 | 3.14 ± 0.13 | 3.29 ± 0.098 | 3.31 ± 0.096
LLENSVDKNFDKLELYV [MTW1] | 3.03 ± 0.052 | 2.64 ± 0.065 | 3.15 ± 0.065 | 2.97 ± 0.048
AGVQGSKVSKQQAKGAF [RPL24B] | 3.08 ± 0.15 | 3.21 ± 0.11 | 3.19 ± 0.055 | 3.21 ± 0.081
FPSSETTSLNPIQSKVF [BRR2] | 2.2 ± 0.093 | 2.52 ± 0.082 | 1.79 ± 0.14 | 2.33 ± 0.11
LQGISTLRPRQYATVSK [RPL34A] | 2.59 ± 0.13 | 2.75 ± 0.13 | – | –
TLILIQNPENLLSEKIL [SIR3] | 2.98 ± 0.062 | 2.88 ± 0.07 | 2.87 ± 0.046 | 3.16 ± 0.06
IVGQKNLNRAFNGDQVI [DIS3] | 3.12 ± 0.078 | 2.83 ± 0.087 | 2.76 ± 0.057 | 2.98 ± 0.078
RFVLSDDYSNLKREERQ [SMC3] | 2.27 ± 0.085 | 2.65 ± 0.081 | 2.43 ± 0.093 | 2.7 ± 0.059
QDVDDAHAIDQMTWRQW [POP8] | 2.1 ± 0.058 | 1.99 ± 0.052 | 1.78 ± 0.069 | 2.5 ± 0.076
FQIEADFIGHNSNINTL [ASC1] | 2.1 ± 0.06 | 2.63 ± 0.049 | 2.35 ± 0.081 | 2.68 ± 0.043
RAIILERNAAYQKEYET [RPL7A] | 2.59 ± 0.067 | 2.81 ± 0.05 | 2.62 ± 0.05 | 2.89 ± 0.079
LFLRGDSVIVVLKTPVE [SMD2] | 2.63 ± 0.12 | 2.42 ± 0.093 | 2.78 ± 0.083 | 2.38 ± 0.14
LEEITQYEHLIKGIREY [YDL116W/NUP84] | 2.35 ± 0.22 | 3.07 ± 0.13 | 2.94 ± 0.2 | 2.81 ± 0.14
QRETMKERKLRENIAML [SMC1] | 3.42 ± 0.24 | 3.01 ± 0.19 | 3.04 ± 0.12 | 3.42 ± 0.066
FVAATTNAGYTIELAGG [FAS1] | 2.82 ± 0.063 | 2.97 ± 0.059 | 2.9 ± 0.11 | 2.68 ± 0.062
MSEEGPQVKIREASKDN [RPB3] | 3.18 ± 0.13 | 2.44 ± 0.039 | 2.94 ± 0.096 | 3.08 ± 0.083
DIEFINSLLTIVWRFIS [RPC34] | – | 2.91 ± 0.23 | 2.51 ± 0.21 | 2.12 ± 0.14
FISAARYKPKSHLWEID [RPC37] | 3.02 ± 0.11 | 3.06 ± 0.082 | 2.71 ± 0.067 | 3.11 ± 0.069
LEASYSKSYTPRKLVLS [SMC4] | 2.31 ± 0.043 | 2.52 ± 0.059 | 2.11 ± 0.088 | 2.22 ± 0.05
DWESDLHIHLNQILQTE [YDL116W/NUP84] | 2.69 ± 0.1 | 3.07 ± 0.087 | 2.77 ± 0.092 | 2.81 ± 0.15
